The kcat is the maximal rate divided by the concentration of active sites. The term kcat/Km denotes the second-order rate constant that governs catalysis at low substrate concentration.

This passage reports Km, kcat and kcat/Km results from paper PMC9599836, “Comparative Analysis of Mesophilic YqfB-Type Amidohydrolases” (Biomolecules, 2022).

Holding throughout (assay): purified protein
Common to all, as to settings: 20 mM Tris-HCl, pH 7.5, 22 °C, 0.025-0.2 mM ac4C

Substrate in series [1]: CC(=O)Nc1ccn([C@@H]2O[C@H](CO)[C@@H](O)[C@H]2O)c(=O)n1
It is filed as biochemical, Buttiauxella agrestis.

Substrate in series [2]: CC(=O)Nc1ccn([C@@H]2O[C@H](CO)[C@@H](O)[C@H]2O)c(=O)n1
Substrate in series [3]: CC(=O)Nc1ccn([C@@H]2O[C@H](CO)[C@@H](O)[C@H]2O)c(=O)n1
It is filed as biochemical, Shewanella loihica.

B1: BagYqfB (Buttiauxella agrestis ATCC 33320) (protein)
chain: MNDITFFQRFESDIVAGRKTITLRDVSESHFIPGQQLRVGRYEDDVYFCTIEVVSVTPVALEKLTDEHARQENMTLPELKEVIGEIYPGLTELYAIVFRLLTKSDKRVL
notes: 109 a.a; pLATE31 expression vector, E. coli HMS174 ΔpyrF ΔyqfB host
For the protein B1, in “purified protein [1]”, the Km result is “(3.6 ± 0.8) × 10^-5 M”, the kcat was 154 ± 11 s⁻¹ and the kcat/Km worked out at 4.3e+06 ± 700000 M⁻¹ s⁻¹.

B2: KpnYqfB (Klebsiella pneumoniae subsp. pneumoniae MGH 78578) (protein)
chain: MQANDITFFQRFQDDILAGRKTITIRDAAESHFKPGDVLRVGRYEDDGYFCTIAVTATSTVTLDTLTEQHAQQENMTLGQLRQVISDIYPGESQFYVIEFKTL
For the protein B2, in the series “purified protein [2]”, the Km result is recorded as “(4.6 ± 0.8) × 10^-5 M”, the kcat is 216 ± 2 s⁻¹ and the kcat/Km was 4.8e+06 ± 800000 M⁻¹ s⁻¹.

B3: SloYqfB (Shewanella loihica PV-4) (protein)
chain: MTPLTYDGKITFFERFEADILSGAKTITLRDESESHFRVGDRLSVSTFETGRHFCDIQVVRVEELAFEALNSRHAVQENMTLEQLKAVITEIYGEIDTLYLIEYRLL
notes: pLATE31 expression vector, E. coli HMS174 ΔpyrF ΔyqfB host
With B3, in the series “purified protein [3]”, the Km result is recorded as “(1 ± 0.2) × 10^-4 M”, the kcat worked out at 441 ± 37 s⁻¹ and the kcat/Km is 4.3e+06 ± 500000 M⁻¹ s⁻¹.
